The results in this text go back to patent US20220177587A1, “METHODS AND USES OF VARIANT CD80 FUSION PROTEINS AND RELATED CONSTRUCTS” (Alpine Immune Sciences, Inc., priority 2018, published 2022).

Residue numbers refer to the chain shown, from its start. Names may count otherwise.

The target in test [1] is T1, CD28 (Homo sapiens, UniProt P10747). Description: Flow binding to Jurkat/IL2 reporter cells (CD28). Set-up: host or cells: Jurkat cells expressing an IL-2-luciferase reporter. The following applies: 33.3 nM. How it is done: (§1) Binding of selected immunomodulatory fusion proteins to cognate binding partners was assessed. […] Cells were sorted in a Bio-Rad S3 Cell Sorter (Bio-Rad Corp., USA) to >98% purity. Jurkat/IL2 reporter cells, which endogenously express CD28, were used to detect binding to CD28.
(§2) For staining and analysis by flow cytometry, 100,000 cells of appropriate transfected cells were plated in 96-well round bottom plates. Cells were spun down and resuspended in staining buffer (phosphate buffered saline (PBS), 1% bovine serum albumin (BSA), and 0.1% sodium azide) for 20 minutes to block non-specific binding. […] Primary staining was performed on ice for 45 minutes, before washing cells in staining buffer twice. Phycoerythrin (PE)-conjugated anti-human Fc (Jackson ImmunoResearch, USA) was diluted 1:150, added to cells and incubated another 30 minutes on ice. Cells were then washed twice with 150 μL/well stain buffer, fixed in 2% formaldehyde/PBS, and analyzed on Intellicyt flow cytometer (Intellicyt Corp., USA). PE Mean Fluorescence Intensity (MFI) was calculated for each cell type with FlowJo Version 10 software (FlowJo LLC, USA).
(§3) Binding assays were carried out to assess the specificity and affinity of multivalent proteins to cell-expressed CTLA-4, CD28, and PD-L1 counter structures.
(§4) The EC50 for binding also was determined.

The target in the next test is huPD-L1 (Homo sapiens, UniProt Q9NZQ7). Kind of test: Flow binding to CHO cells stably expressing PD-L1. Also on record: huCTLA4 and huPD-L1, full-length mammalian surface expression constructs were generated; expressed in transfected cells; host or cells: CHO cells, lentiviral transduction, sorted to >98% purity. As to conditions: CHO cells stably expressing PD-L1, 33.3 nM. How it is done:
as §1, §2, §3, §4

For test [2], the target named is T1, CD28. Description: Jurkat/IL2 + CHO/OKT3 +/- PD-L1 reporter assay: PD-L1-dependent CD28 costimulation. It is filed as cell-based. Also on record: host or cells: Jurkat cells expressing an IL-2-luciferase reporter. As to conditions: Jurkat/IL2 + CHO/OKT3/PD-L1. How it is done: Jurkat cells were then plated at 50 μL/well for a total of 100,000 cells per well.
To each well, 25 μL of test protein was added to the Jurkat cells. […] The Jurkat cells with test or control proteins were incubated for 15 minutes at room temperature. CHO-derived artificial antigen presenting cells (aAPC) displaying transduced cell surface anti-CD3 single chain Fv (OKT3) (i.e., no PD-L1), or OKT3 and PD-L1 (i.e., +PD-L1), were brought to 0.8×10^6 cells/mL, and 25 μL of cells were added to each well, bringing the final volume of each well to 100 μL. […] Jurkat cells and CHO cells were incubated for 5 hours at 37 degrees Celsius in a humidified 5% CO2 incubation chamber. Plates were then removed from the incubator and acclimated to room temperature for 15 minutes. 100 μL of a cell lysis and luciferase substrate solution (BioGlo luciferase reagent, Promega) were added to each well and the plates were incubated on an orbital shaker for 10 minutes. Luminescence was measured with a 1 second per well integration time using a BioTek Cytation luminometer, and a relative luminescence value (RLU) was determined for each test sample.
For orientation: In a reporter assay the amount or activity of a reporter protein is the signal.

Setting [3] is: Table E16, consensus variants, Jurkats (CD28).

Sequence of huPD-L1 (Q9NZQ7 19-290): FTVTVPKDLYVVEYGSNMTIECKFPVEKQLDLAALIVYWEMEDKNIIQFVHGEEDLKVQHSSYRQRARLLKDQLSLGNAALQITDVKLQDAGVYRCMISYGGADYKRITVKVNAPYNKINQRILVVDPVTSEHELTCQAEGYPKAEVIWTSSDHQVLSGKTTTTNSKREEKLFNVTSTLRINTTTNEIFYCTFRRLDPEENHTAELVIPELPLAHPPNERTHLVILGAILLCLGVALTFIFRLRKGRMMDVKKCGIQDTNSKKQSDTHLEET

B1: E35D/M47V/N48I/L85Q (protein)
chain: VIHVTKEVKEVATLSCGHNVSVEELAQTRIYWQKDKKMVLTMMSGDVTIWPEYKNRTIFDITNNLSIVILALRPSDEGTYECVVQKYEKDAFKREHLAEVTLSVKAD
With B1, the “CD28 MFI at 33.3 nM” value with CD28 [1] (Table E4, Jurkat cells (CD28)) amounted to 692.

B2: E35D/D46V/M47V/V68M/K89N (protein)
chain: B1 chain with D46V, T48N, V68M, Q85L, K89N
With B2, the “PD-L1 MFI at 33.3 nM” value in the test with huPD-L1 (Table E19) stood at 21603. The “CD28 MFI at 33.3 nM” value in the test with CD28 [1] (Table E19, Jurkats (CD28)) stood at 2119. For the same molecule, the “Relative Luciferase Units (RLU), CD80 Conc 5.0 nM” value with CD28 [2] (Table E21, CD80 Conc 5.0 nM) is reported as 817 RLU.

B3: E35D/M47V/N48K/L85M (protein)
chain: B1 chain with T48K, Q85M
With B3, in the test with huPD-L1 (Table E10), the “PD-L1 MFI at 33.3 nM” value is 5660. Moreover, the “CD28 MFI at 33.3 nM” value in the test with CD28 [1] (Table E10, Jurkats (CD28)) is 413. Further, in the test with CD28 [2] (Table E12, 5.0 nM), the “Relative Luciferase Units (RLU), CD80 Cone 5.0 nM” value is on record as 2116 RLU.

B4: E35D/N48K/V68M/K89N (protein)
chain: B1 chain with V47M, T48K, V68M, Q85L, K89N
For B4, the “PD-L1 MFI at 33.3 nM” value in the test with huPD-L1 (Table E19) is 17425. In addition, the “CD28 MFI at 33.3 nM” value with CD28 [1] (Table E19, Jurkats (CD28)) is reported as 1534.

B5: E35D/L97R (protein)
chain: B1 chain with V47M, T48N, Q85L, L97R
Turning to B5, the “PD-L1 MFI at 33.3 nM” value with huPD-L1 (Table E10) is 2614. In addition, in the test with CD28 [1] (Table E10, Jurkats (CD28)), the “CD28 MFI at 33.3 nM” value amounted to 44.6. Besides, the “Relative Luciferase Units (RLU), CD80 Cone 5.0 nM” value in the test with CD28 [2] (Table E12, 5.0 nM) is 914 RLU.

B6: M47L/L85Q (protein)
chain: B1 chain with D35E, V47L, T48N
Turning to B6, the “PD-L1 MFI at 33.3 nM” value with huPD-L1 (Table E19) is given as 5801. Moreover, the “CD28 MFI at 33.3 nM” value with CD28 [1] (Table E19, Jurkats (CD28)) is recorded as 88.1. The “Relative Luciferase Units (RLU), CD80 Conc 5.0 nM” value in the test with CD28 [2] (Table E21, CD80 Conc 5.0 nM) is 416 RLU.

B7: A26E/E35D/V68M/A71G (protein)
chain: B1 chain with A26E, V47M, T48N, V68M, A71G, Q85L
As to B7, the “PD-L1 MFI at 33.3 nM” value in the test with huPD-L1 (Table E20) stood at 12611. Besides, the “CD28 MFI at 33.3 nM” value with CD28 [1] (Table E20, Jurkats (CD28)) amounted to 135. Besides, the “Relative Luciferase Units (RLU), CD80 Conc 5.0 nM” value in the test with CD28 [2] (Table E22, CD80 Conc 5.0 nM) was 839 RLU.

B8: T13R/E35D/M47LN68M (protein)
chain: B1 chain with T13R, V47L, T48N, V68M, Q85L
In the case of B8, the “PD-L1 MFI at 33.3 nM” value with huPD-L1 (Table E11) turned out to be 19969. The “CD28 MFI at 33.3 nM” value with CD28 [1] (Table E11, Jurkats (CD28)) amounted to 15.6.

B9: E35D/N48K/L72V (protein)
chain: B1 chain with V47M, T48K, L72V, Q85L
Turning to B9, in the test with huPD-L1 (Table E10), the “PD-L1 MFI at 33.3 nM” value turned out to be 3031. Also, the “CD28 MFI at 33.3 nM” value in the test with CD28 [1] (Table E10, Jurkats (CD28)) was 582. In addition, the “Relative Luciferase Units (RLU), CD80 Cone 5.0 nM” value with CD28 [2] (Table E12, 5.0 nM) worked out at 1731 RLU.

B10: V22D/E24D/E35D/M47L/V68M (protein)
chain: VIHVTKEVKEVATLSCGHNVSDEDLAQTRIYWQKDKKMVLTMMSGDLNIWPEYKNRTIFDITNNLSIMILALRPSDEGTYECVVLKYEKDAFKREHLAEVTLSVKADFPTPSISDFETPTSNIRRIICSTSGGFPEPHLSWLENGEELNAINTTVSQDPETELYAVSSKLDFNMTTNHSFMCLIKYGHLRVNQTFNWNTTKQEHFPDN
modifications: CD80 v383 ECD
Take B10: the “PD-L1 MFI at 33.3 nM” value with huPD-L1 (Table E11) is given as 15418. The “CD28 MFI at 33.3 nM” value with CD28 [1] (Table E11, Jurkats (CD28)) worked out at 1254. In addition, the “Relative Luciferase Units (RLU), CD80 Cone 5.0 nM” value in the test with CD28 [2] (Table E13, 5.0 nM) was 974 RLU.

B11: E35D/D46E/M47L/V68M/T79M/L85M (protein, UniProt P33681 35-288, looked up, variant E35D D46E M47L V68M T79M L85M)
T-lymphocyte activation …: VIHVTKEVKEVATLSCGHNVSVEELAQTRIYWQKDKKMVLTMMSGELNIWPEYKNRTIFDITNNLSIMILALRPSDEGMYECVVMKYEKDAFKREHLAEVTLSVKADFPTPSISDFEIPTSNIRRIICSTSGGFPEPHLSWLENGEELNAINTTVSQDPETELYAVSSKLDFNMTTNHSFMCLIKYGHLRVNQTFNWNTTKQEHFPDNLLPSWAITLISVNGIFVICCLTYCFAPRCRERRRNERLRRESVRPV
B11: the “PD-L1 MFI at 33.3 nM” value in the test with huPD-L1 (Table E11) turned out to be 8641. Moreover, the “CD28 MFI at 33.3 nM” value in the test with CD28 [1] (Table E11, Jurkats (CD28)) was 403. Further, the “Relative Luciferase Units (RLU), CD80 Cone 5.0 nM” value with CD28 [2] (Table E13, 5.0 nM) was found to be 1137 RLU.

B12: E35D/M47V/N48K/V68M/K89N GS(G4S)3 (protein, UniProt P33681 35-288, looked up, variant E35D M47V N48K V68M K89N)
T-lymphocyte activation …: B11 T-lymphocyte activation … with E46D, L47V, N48K, M79T, M85L, K89N
modifications: GS(G4S)3 linker
For the molecule B12, the “CD28 MFI at 33.3 nM” value with CD28 [1] (Table E25, linker variants, Jurkats (CD28)) worked out at 2109. Also, in the test with CD28 [2] (Table E26, linker variants, 5.0 nM), the “Relative Luciferase Units (RLU), CD80 Conc 5.0 nM” value is given as 1400 RLU.

B13: E35D/M47L/V68M/E95V/L97Q (protein, UniProt P33681 35-288, looked up, variant E35D M47L V68M E95V L97Q)
T-lymphocyte activation …: B11 T-lymphocyte activation … with E46D, M79T, M85L, E95V, L97Q
modifications: Fc fusion
In the case of B13, the “PD-L1 MFI at 33.3 nM” value in the test with huPD-L1 (Table E11) is given as 18600. The “CD28 MFI at 33.3 nM” value in the test with CD28 [1] (Table E11, Jurkats (CD28)) worked out at 14. Besides, the “Relative Luciferase Units (RLU), CD80 Cone 5.0 nM” value with CD28 [2] (Table E13, 5.0 nM) amounted to 1086 RLU.

B14: H18Y/E35D/M47I/V68M/Y87N (protein, UniProt P33681 35-288, looked up, variant H18Y E35D M47I V68M Y87N)
T-lymphocyte activation …: B11 T-lymphocyte activation … with H18Y, E46D, L47I, M79T, M85L, Y87N
modifications: Fc fusion
B14: the “CD28 MFI at 33.3 nM” value was found to be 4038 with CD28 [1] (Table E11, Jurkats (CD28)) and 1429 in the test with CD28 [1] (setting [3]).

B15: H18Y/E35D/V68M/L85M/R94Q (protein, UniProt P33681 35-288, looked up, variant H18Y E35D V68M L85M R94Q)
T-lymphocyte activation …: B11 T-lymphocyte activation … with H18Y, E46D, L47M, M79T, R94Q
For the molecule B15, the “PD-L1 MFI at 33.3 nM” value in the test with huPD-L1 (Table E11) is given as 14410; with huPD-L1 (Table E16, consensus variants) it was 9283. Further, the “CD28 MFI at 33.3 nM” value with CD28 [1] (Table E11, Jurkats (CD28)) came out at 14; with CD28 [1] (setting [3]), 962. Besides, the “Relative Luciferase Units (RLU), CD80 Cone 5.0 nM” value with CD28 [2] (Table E13, 5.0 nM) is recorded as 195 RLU; in the test with CD28 [2] (Table E17, consensus variants, 5.0 nM) it was 2215 RLU.
